# Experimental data: US5175251A, “Antimetastatic peptides with laminin activity” (SRI International, priority 1991, dated 1992)
# B1: CTAP-III: naturally occurring polypeptide isolated from human platelets that is capable of activating connective tissue cells (protein, UniProt P02775 44-128, looked up)
# Connective tissue-activating …: NLAKGKEESLDSDLYAELRCMCIKTTSGIHPKNIQSLEVIGKGTHCNQVEVIATLKDGRKICLDPDAPRIKKIVQKKLAGDESAD
# modifications: Connective tissue-activating peptide III
# Legend:
# Isoelectric point = format: physicochemical
# Text: The anion exchange resin is usually employed in the form of a packed column. The column is equilibrated using conventional techniques and the solution of the cleaved reaction products is loaded onto the column. […] The peptide is eluted by increasing the ionic strength of the buffered solution, typically from 0 to 0.75M NaCl. The column can be regenerated by washing with solutions of NaOH and nonionic detergents to remove any residual contaminating protein or solubilizing agents and equilibrating the column.
# For example, when the laminin B1 peptide is fused to CTAP-III(Leu21), an anion exchange column (for example, either Mono-Q or Q Sepharose from Pharmacia) may be employed to separate the two proteins on the basis of differences in their isoelectric points (LamB1 -40(Ser27) peptide=3.65, CTAP-III=7.8). […] Elution of the peptide may be performed with a linear gradient (0 to 0.5M) of NaCl. Pooled fractions of LamB1 -40, typically greater than 90% pure, may optionally be subjected to further purification using hydrophobic interaction chromatography (HIC), gel filtration chromatography, reverse-phase liquid chromatography or combinations thereof.
# [1] = tested on: B16/F10 cells (murine melanoma); assay: Cell adhesion assay: tumor cells bound to peptide-coated wells; format: cell-based; conditions: summary of Table 1
# Protocol: The cell-adhesion assay measures the binding of tumor cells to laminin immobilized on the surface of a culture dish. The peptides of the invention can be substituted for the immobilized laminin to measure the binding constants of the peptides and compare binding constants of the peptides of the invention with laminin or other known laminin peptides. In this assay, solubilized peptides are incubated on tissue culture well plates and nonspecific cell binding is blocked by the addition of bovine serum albumin (BSA). Tumor cells are added to the wells and nonadherent cells are removed by washing with phosphate-buffered saline (PBS). Attached cells may be trypsinized and counted electronically or the cells may be fixed, stained with chemical agents, such as crystal violet solution and the optical density of the solutions determined using a microtiter plate reader in the range from 590-405 nm. Extrapolation of OD to the number of cells bound may be obtained by comparison of readings to a standard curve obtained by incubating various numbers of cells in tissue culture wells for a time sufficient to allow firm attachment but not permit significant cell division (about 5 h), and washing and staining as above. […]
Molecule,isoelectric point (pI) (Isoelectric point),Binding of metastatic tumor cells compared with YIGSR or CDPGYIGSR [1]
"NH2 -Pro-Cys-Pro-Asp-Gly-Pro-Asp-Ser-Gly-Arg-Gln-Phe-Ala-Arg-Ser-Cys-Tyr -Gln-Asp-Pro-Val-Thr-Leu-Gln-Leu-Ala-Ser-Val-Cys-Asp-Pro-Gly-Tyr-Ile-Gly-Ser-Arg-Cys-Asp-Asp-OH (H-PCPDGPDSGRQFARSCYQDPVTLQLASVCDPGYIGSRCDD-OH; cysteine pairing not given here) [LamB1 -40(Ser27), recombinant 40 amino acid laminin B1 peptide, Cys at position 923 replaced with serine]",3.65,binds metastatic tumor cells more effectively
B1,7.8,
